Numbered stars: 1 amine (or outer) side, 2 acyl side, 3 side chain; on linkers, the order of the positions; unused ones are H or OH. Square brackets hold non-standard residues; d marks the D form. Primed or numbered codes have the meaning given here. Side chains are listed from the residue outwards. Ends that are not written are not given here. Peptide text beside a SMILES is read from it. * marks the point of attachment. C18″ = C18 fatty acid moiety (of 2OEG-γGlu-C18, K*); Biotin = O=C1N[C@H]2[C@H](CS[C@H]2CCCCC(=O)*)N1; C18 diacid = O=C(O)CCCCCCCCCCCCCCCCC(=O)*; γGlu = O=C(O)[C@H](CCC(=O)[*:2])N[*:1]; AEEA = NCCOCCOCC(=O)O; Aib = CC(C)(N)C(=O)O
T1: human GIPR (Homo sapiens, UniProt P48546)
T1 construct: host or cells: CHO-K1
T1 sequence (P48546 22-466): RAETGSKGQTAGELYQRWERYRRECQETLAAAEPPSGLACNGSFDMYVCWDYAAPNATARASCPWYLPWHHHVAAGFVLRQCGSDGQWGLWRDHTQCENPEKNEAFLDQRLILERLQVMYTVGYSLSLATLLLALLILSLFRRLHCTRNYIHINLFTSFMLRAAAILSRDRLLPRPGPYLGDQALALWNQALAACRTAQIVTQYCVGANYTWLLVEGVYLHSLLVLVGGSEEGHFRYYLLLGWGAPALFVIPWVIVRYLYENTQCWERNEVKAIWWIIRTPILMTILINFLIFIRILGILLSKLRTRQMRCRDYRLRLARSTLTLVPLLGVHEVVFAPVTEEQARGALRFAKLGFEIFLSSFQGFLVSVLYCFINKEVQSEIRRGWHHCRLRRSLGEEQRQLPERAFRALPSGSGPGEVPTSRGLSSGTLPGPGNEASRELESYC

T2: human glucose-dependent insulinotropic polypeptide receptor (GIPR), expressed on CHO-K1 cells (human, UniProt P48546 22-466)
T2 sequence (looked up): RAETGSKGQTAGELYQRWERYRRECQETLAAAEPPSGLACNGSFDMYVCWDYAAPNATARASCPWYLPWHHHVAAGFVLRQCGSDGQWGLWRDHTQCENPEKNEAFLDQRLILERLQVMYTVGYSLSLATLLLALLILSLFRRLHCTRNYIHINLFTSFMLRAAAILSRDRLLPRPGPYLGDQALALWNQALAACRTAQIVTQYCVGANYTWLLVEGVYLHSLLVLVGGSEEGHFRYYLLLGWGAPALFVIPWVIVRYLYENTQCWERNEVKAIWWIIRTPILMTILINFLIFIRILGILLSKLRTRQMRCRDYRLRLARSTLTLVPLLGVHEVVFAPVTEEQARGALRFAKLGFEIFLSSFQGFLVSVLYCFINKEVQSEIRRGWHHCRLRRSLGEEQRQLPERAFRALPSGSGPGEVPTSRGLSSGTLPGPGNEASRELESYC


Legend:
[1] = target: T3, human GLP-1R (Homo sapiens, UniProt P43220); assay: cAMP assay (HitHunter cAMP) in GLP-1R-expressing CHO-K1 cells (GLP-1R+ cells); type: cell-based; details: Table 31
T3 construct: host or cells: CHO-K1
T3 sequence (P43220 24-463): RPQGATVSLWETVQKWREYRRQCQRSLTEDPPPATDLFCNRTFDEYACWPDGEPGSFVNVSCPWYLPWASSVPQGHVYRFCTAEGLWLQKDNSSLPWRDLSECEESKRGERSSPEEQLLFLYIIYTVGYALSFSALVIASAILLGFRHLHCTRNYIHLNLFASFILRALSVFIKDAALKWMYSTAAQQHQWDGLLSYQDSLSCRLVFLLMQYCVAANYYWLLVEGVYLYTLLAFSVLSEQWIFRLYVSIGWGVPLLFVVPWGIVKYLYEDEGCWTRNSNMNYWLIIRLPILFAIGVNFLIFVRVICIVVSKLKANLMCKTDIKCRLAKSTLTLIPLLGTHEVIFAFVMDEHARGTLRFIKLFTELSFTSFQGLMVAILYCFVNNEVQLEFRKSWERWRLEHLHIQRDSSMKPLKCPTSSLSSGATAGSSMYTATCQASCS
Method in brief: (§1)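 Luminescent cAMP read-out: after 30 min peptide stimulation at 37 °C in cAMP assay buffer, receptor-expressing CHO-K1 cells (seeded 7×10^3/well the night before) received antibody and detection reagents for 1 h, then Solution A for 3 h, at room temperature in the dark.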

[2] = target: T4, human GCGR (Homo sapiens, UniProt P47871); assay: cAMP assay (HitHunter cAMP) in GCGR-expressing CHO-K1 cells (GCGR+ cells); type: cell-based; details: Table 31
T4 construct: host or cells: CHO-K1
T4 sequence (P47871 26-477): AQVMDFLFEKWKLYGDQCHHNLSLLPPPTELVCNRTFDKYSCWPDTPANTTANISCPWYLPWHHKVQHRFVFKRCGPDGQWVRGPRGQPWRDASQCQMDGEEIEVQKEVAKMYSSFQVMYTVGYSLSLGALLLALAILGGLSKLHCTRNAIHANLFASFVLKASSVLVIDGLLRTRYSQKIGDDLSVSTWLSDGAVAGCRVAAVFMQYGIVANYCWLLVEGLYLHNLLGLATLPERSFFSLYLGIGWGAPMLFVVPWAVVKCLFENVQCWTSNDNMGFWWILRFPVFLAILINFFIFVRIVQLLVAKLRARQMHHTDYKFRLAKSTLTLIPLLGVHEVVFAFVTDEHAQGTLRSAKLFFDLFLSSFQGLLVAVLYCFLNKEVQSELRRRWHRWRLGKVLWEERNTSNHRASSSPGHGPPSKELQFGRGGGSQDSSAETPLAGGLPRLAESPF
Method in brief: as §1

[3] = target: T1, human GIPR; assay: cAMP assay (HitHunter cAMP) in GIPR-expressing CHO-K1 cells (GIPR+ cells); type: cell-based; details: Table 31
Method in brief: as §1

[4] = In vitro enzymatic stability against FaSSIF/P (pancreatin in FaSSIF, pH 6.5); type: in vitro ADME; details: simulated gi fluid, pH 6.5, Half-life (min)
Method: This study was conducted to determine the enzymatic stability of SEQ ID NOs. 77, 86, 87, 89, 90, and 91 after biotinylation in artificial intestinal environment. The test samples were prepared by mixing stock solutions of peptide and pancreatin dissolved in FaSSIF solution (pH 6.5) in a weight ratio of 25:1. The test samples were incubated at 37° C. for 120 min. The sampling from test samples was proceeded at the predetermined time points (10, 30, 60, and 120 min) and stopped by 10% TFA solution.
Analytical HPLC was performed to determine the remaining amount on an ACQUITY Premier system (Waters, USA) with an ACQUITY CSH C18 column (Waters, USA) at 35° C. using 0.1% TFA in water and acetonitrile. The remaining amount was determined as a percentage of the peak area at the sampling time point relative to the peak area of the initial sample.
For the stability against FaSSIF/P, the test samples were prepared by mixing stock solutions of peptide and pancreatin dissolved in FaSSIF solution (pH 6.5) in a weight ratio of 19:1. The test samples were incubated at 37° C. for 120 min. The sampling from test samples was proceeded at the predetermined time points (10, 30, 60, and 120 min) and stopped by 10% TFA solution.

[5] = target: T5, human GLP-1 receptor (GLP-1R), expressed on CHO-K1 cells (human, UniProt P43220 24-463); assay: cell-based or functional assay
[6] = target: T6, human glucagon receptor (GCGR), expressed on CHO-K1 cells (human, UniProt P47871 26-477); assay: cell-based or functional assay
T6 sequence (P47871 26-477): as above

[7] = target: T2, human glucose-dependent insulinotropic …; assay: cell-based or functional assay
[8] = target: T5, human GLP-1 receptor (GLP-1R), …; assay: cell-based or functional assay; remark: listed apart in the source
[9] = target: T6, human glucagon receptor (GCGR), …; assay: cell-based or functional assay; remark: listed apart in the source
[10] = target: T2, human glucose-dependent insulinotropic …; assay: cell-based or functional assay; remark: listed apart in the source
[11] = target: T5, human GLP-1 receptor (GLP-1R), …; assay: cell-based or functional assay; remark: listed apart in the source
[12] = target: T6, human glucagon receptor (GCGR), …; assay: cell-based or functional assay; remark: listed apart in the source
[13] = target: T2, human glucose-dependent insulinotropic …; assay: cell-based or functional assay; remark: listed apart in the source

Molecule	Ratio vs. GLP-1R, GLP-1R [1]	Relative % to native ligand, GLP-1R [1] [%]	Ratio vs. GLP-1R, GCGR [2]	Relative % to native ligand, GCGR [2] [%]	Ratio vs. GLP-1R, GIPR [3]	Relative % to native ligand, GIPR [3] [%]	half-life [4] [min]	Relative % to native ligand [5] [%]	Relative % to native ligand [6] [%]	Relative % to native ligand [7] [%]	Ratio vs. GLP-1R [8]	Ratio vs. GLP-1R [9]	Ratio vs. GLP-1R [10]	Relative % to non-lipidated peptide [11] [%]	Relative % to non-lipidated peptide [12] [%]	Relative % to non-lipidated peptide [13] [%]
CSCC[C@H](NC(=O)[C@H](CCCCNC(=O)CCCC[C@@H]1SC[C@@H]2NC(=O)N[C@@H]21)NC(=O)[C@H](Cc1ccc(O)cc1)NC(=O)[C@H](CC(=O)O)NC(=O)[C@H](CC(C)C)NC(=O)[C@H](CC(C)C)NC(=O)[C@H](CCCCNC(=O)COCCOCCNC(=O)COCCOCCNC(=O)CC[C@H](NC(=O)CCCCCCCCCCCCCCCCC(=O)O)C(=O)O)NC(=O)[C@H](CO)NC(=O)[C@H](Cc1ccc(O)cc1)NC(=O)[C@H](CC(=O)O)NC(=O)[C@H](CO)NC(=O)[C@@H](NC(=O)[C@H](Cc1ccccc1)NC(=O)[C@@H](NC(=O)CNC(=O)[C@H](CCC(N)=O)NC(=O)C(C)(C)NC(=O)[C@@H](N)Cc1ccc(O)cc1)[C@@H](C)O)[C@@H](C)O)C(=O)N[C@@H](CCC(N)=O)C(=O)NC(C)(C)C(=O)N[C@@H](CC(=O)O)C(=O)N[C@@H](Cc1ccccc1)C(=O)N[C@H](C(=O)N[C@@H](CCC(N)=O)C(=O)N[C@@H](Cc1c[nH]c2ccccc12)C(=O)N[C@@H](CC(C)C)C(=O)N[C@@H](CC(C)C)C(=O)N[C@@H](CCC(=O)O)C(=O)NCC(=O)NCC(=O)N1CCC[C@H]1C(=O)N[C@@H](CO)C(=O)N[C@@H](CO)C(=O)NCC(=O)N[C@@H](C)C(=O)N1CCC[C@H]1C(=O)N1CCC[C@H]1C(=O)N1CCC[C@H]1C(=O)N[C@@H](CO)C(N)=O)C(C)C [compound 91] (H-Y[Aib]QGTFTSDYSK([AEEA-AEEA-γGlu-C18 diacid])LLDYK(Biotin)MQ[Aib]DFVQWLLEGGPSSGAPPPS-NH2; N-terminus and C-terminus assumed)	100	19	135	26	970	184	33.3									
H[Aib]QGTFTSDYSK([AEEA-AEEA-γGlu-C18″])YLDYMMARDFVQWLIEGGPSSGAPPPS-NH2 [Peptide No. 5D]								35	72	3	100	204	8	6	10	93
Y[Aib]QGTFTSDYSKYLDYMMARDFVQWLIEGGPSSGAPPPSC-NH2 [Peptide No. 5-1]								117	6650	13	100	5660	11	100	100	100
Y[Aib]QGTFTSDYSK([AEEA-AEEA-γGlu-C18″])YLDYMMARDFVQWLIEGGPSSGAPPPS-NH2 [Peptide No. 5-1D]								151	55	41	100	36	27	129	1	323
Y[Aib]QGTFTSDK([AEEA-AEEA-γGlu-C18″])SKYLDYMMARDFVQWLIEGGPSSGAPPPS-NH2 [Peptide No. 5-1E]								57	74	1	100	130	1	48	1	5
Y[Aib]QGTFTSDYSKYLDYK([AEEA-AEEA-γGlu-C18″])MARDFVQWLIEGGPSSGAPPPS-NH2 [Peptide No. 5-1F]								61	5030	2	100	8250	3	52	76	14
Y[Aib]QGTFTSDYSKYLDYMMQRDFVQWLIEGGPSSGAPPPSC-NH2 [Peptide No. 5-2]								495	91	738	100	18	149	100	100	100
Y[Aib]QGTFTSDYSK([AEEA-AEEA-γGlu-C18″])YLDYMMQRDFVQWLIEGGPSSGAPPPS-NH2 [Peptide No. 5-2D]								174	3	93	100	1	54	35	3	13
Y[Aib]QGTFTSDYSKLLDYMMQRDFVQWLLEGGPSSGAPPPSC-NH2 [Peptide No. 5-3]								638	969	7120	100	152	1120	100	100	100
H[Aib]QGTFTSDYSKLLDYMMQRDFVQWLLEGGPSSGAPPPSC-NH2 [Peptide No. 5-5]								1690	260	526	100	15	31	100	100	100
H[Aib]QGTFTSDYSK([AEEA-AEEA-γGlu-C18″])LLDYMMQRDFVQWLLEGGPSSGAPPPS-NH2 [Peptide No. 5-5D]								305	2	212	100	1	70	18	1	40
